The values below come from US20210388087A1.

First the molecules themselves.
B1: dBBDu183H V95R / dBBDu072L (antibody, name in Kabat numbering, V domains shown)
VH: QVQLVESGGGLVQPGRSLRLSCAASGFTFSNAWMHWVRQAPGKGLEWVAQIKDKGNAYAAYYAPSVKGRFTISRDDSKNSIYLQMNSLKTEDTAVYYCHYRHYASASTVLPAFGVDAWGQGTTVTVSS
VL: DIVMTQSPLSLPVTPGEPASISCQASQELVHMNRNTYLHWYQQKPGQAPRLLIYKVSNRFPGVPDRFSGSGSGTDFTLKISRVEAEDVGVYYCAQGTSVPFTFGQGTKLEIK
B2: dBBDu183H H93F / dBBDu072L (antibody, name in Kabat numbering, V domains shown)
VH: QVQLVESGGGLVQPGRSLRLSCAASGFTFSNAWMHWVRQAPGKGLEWVAQIKDKGNAYAAYYAPSVKGRFTISRDDSKNSIYLQMNSLKTEDTAVYYCFYVHYASASTVLPAFGVDAWGQGTTVTVSS
VL: DIVMTQSPLSLPVTPGEPASISCQASQELVHMNRNTYLHWYQQKPGQAPRLLIYKVSNRFPGVPDRFSGSGSGTDFTLKISRVEAEDVGVYYCAQGTSVPFTFGQGTKLEIK
B3: dBBDu183H F100gR / dBBDu072L (antibody, name in Kabat numbering, V domains shown)
VH: QVQLVESGGGLVQPGRSLRLSCAASGFTFSNAWMHWVRQAPGKGLEWVAQIKDKGNAYAAYYAPSVKGRFTISRDDSKNSIYLQMNSLKTEDTAVYYCHYVHYASASTVLPARGVDAWGQGTTVTVSS
VL: DIVMTQSPLSLPVTPGEPASISCQASQELVHMNRNTYLHWYQQKPGQAPRLLIYKVSNRFPGVPDRFSGSGSGTDFTLKISRVEAEDVGVYYCAQGTSVPFTFGQGTKLEIK
B4: dBBDu183H A98R / dBBDu072L (antibody, name in Kabat numbering, V domains shown)
VH: QVQLVESGGGLVQPGRSLRLSCAASGFTFSNAWMHWVRQAPGKGLEWVAQIKDKGNAYAAYYAPSVKGRFTISRDDSKNSIYLQMNSLKTEDTAVYYCHYVHYRSASTVLPAFGVDAWGQGTTVTVSS
VL: DIVMTQSPLSLPVTPGEPASISCQASQELVHMNRNTYLHWYQQKPGQAPRLLIYKVSNRFPGVPDRFSGSGSGTDFTLKISRVEAEDVGVYYCAQGTSVPFTFGQGTKLEIK
B5: dBBDu183H Y97R / dBBDu072L (antibody, name in Kabat numbering, V domains shown)
VH: QVQLVESGGGLVQPGRSLRLSCAASGFTFSNAWMHWVRQAPGKGLEWVAQIKDKGNAYAAYYAPSVKGRFTISRDDSKNSIYLQMNSLKTEDTAVYYCHYVHRASASTVLPAFGVDAWGQGTTVTVSS
VL: DIVMTQSPLSLPVTPGEPASISCQASQELVHMNRNTYLHWYQQKPGQAPRLLIYKVSNRFPGVPDRFSGSGSGTDFTLKISRVEAEDVGVYYCAQGTSVPFTFGQGTKLEIK
B6: dBBDu183H H96R / dBBDu072L (antibody, name in Kabat numbering, V domains shown)
VH: QVQLVESGGGLVQPGRSLRLSCAASGFTFSNAWMHWVRQAPGKGLEWVAQIKDKGNAYAAYYAPSVKGRFTISRDDSKNSIYLQMNSLKTEDTAVYYCHYVRYASASTVLPAFGVDAWGQGTTVTVSS
VL: DIVMTQSPLSLPVTPGEPASISCQASQELVHMNRNTYLHWYQQKPGQAPRLLIYKVSNRFPGVPDRFSGSGSGTDFTLKISRVEAEDVGVYYCAQGTSVPFTFGQGTKLEIK
B7: dBBDu183H S100aR / dBBDu072L (antibody, name in Kabat numbering, V domains shown)
VH: QVQLVESGGGLVQPGRSLRLSCAASGFTFSNAWMHWVRQAPGKGLEWVAQIKDKGNAYAAYYAPSVKGRFTISRDDSKNSIYLQMNSLKTEDTAVYYCHYVHYASARTVLPAFGVDAWGQGTTVTVSS
VL: DIVMTQSPLSLPVTPGEPASISCQASQELVHMNRNTYLHWYQQKPGQAPRLLIYKVSNRFPGVPDRFSGSGSGTDFTLKISRVEAEDVGVYYCAQGTSVPFTFGQGTKLEIK
B8: dBBDu183H V100iR / dBBDu072L (antibody, name in Kabat numbering, V domains shown)
VH: QVQLVESGGGLVQPGRSLRLSCAASGFTFSNAWMHWVRQAPGKGLEWVAQIKDKGNAYAAYYAPSVKGRFTISRDDSKNSIYLQMNSLKTEDTAVYYCHYVHYASASTVLPAFGRDAWGQGTTVTVSS
VL: DIVMTQSPLSLPVTPGEPASISCQASQELVHMNRNTYLHWYQQKPGQAPRLLIYKVSNRFPGVPDRFSGSGSGTDFTLKISRVEAEDVGVYYCAQGTSVPFTFGQGTKLEIK
B9: dBBDu183H L100dR / dBBDu072L (antibody, name in Kabat numbering, V domains shown)
VH: QVQLVESGGGLVQPGRSLRLSCAASGFTFSNAWMHWVRQAPGKGLEWVAQIKDKGNAYAAYYAPSVKGRFTISRDDSKNSIYLQMNSLKTEDTAVYYCHYVHYASASTVRPAFGVDAWGQGTTVTVSS
VL: DIVMTQSPLSLPVTPGEPASISCQASQELVHMNRNTYLHWYQQKPGQAPRLLIYKVSNRFPGVPDRFSGSGSGTDFTLKISRVEAEDVGVYYCAQGTSVPFTFGQGTKLEIK
B10: dBBDu183H A102R / dBBDu072L (antibody, name in Kabat numbering, V domains shown)
VH: QVQLVESGGGLVQPGRSLRLSCAASGFTFSNAWMHWVRQAPGKGLEWVAQIKDKGNAYAAYYAPSVKGRFTISRDDSKNSIYLQMNSLKTEDTAVYYCHYVHYASASTVLPAFGVDRWGQGTTVTVSS
VL: DIVMTQSPLSLPVTPGEPASISCQASQELVHMNRNTYLHWYQQKPGQAPRLLIYKVSNRFPGVPDRFSGSGSGTDFTLKISRVEAEDVGVYYCAQGTSVPFTFGQGTKLEIK
B11: dBBDu183H T100bF / dBBDu072L (antibody, name in Kabat numbering, V domains shown)
VH: QVQLVESGGGLVQPGRSLRLSCAASGFTFSNAWMHWVRQAPGKGLEWVAQIKDKGNAYAAYYAPSVKGRFTISRDDSKNSIYLQMNSLKTEDTAVYYCHYVHYASASFVLPAFGVDAWGQGTTVTVSS
VL: DIVMTQSPLSLPVTPGEPASISCQASQELVHMNRNTYLHWYQQKPGQAPRLLIYKVSNRFPGVPDRFSGSGSGTDFTLKISRVEAEDVGVYYCAQGTSVPFTFGQGTKLEIK
B12: dBBDu183H V95F / dBBDu072L (antibody, name in Kabat numbering, V domains shown)
VH: QVQLVESGGGLVQPGRSLRLSCAASGFTFSNAWMHWVRQAPGKGLEWVAQIKDKGNAYAAYYAPSVKGRFTISRDDSKNSIYLQMNSLKTEDTAVYYCHYFHYASASTVLPAFGVDAWGQGTTVTVSS
VL: DIVMTQSPLSLPVTPGEPASISCQASQELVHMNRNTYLHWYQQKPGQAPRLLIYKVSNRFPGVPDRFSGSGSGTDFTLKISRVEAEDVGVYYCAQGTSVPFTFGQGTKLEIK
B13: dBBDu183H T100bR / dBBDu072L (antibody, name in Kabat numbering, V domains shown)
VH: QVQLVESGGGLVQPGRSLRLSCAASGFTFSNAWMHWVRQAPGKGLEWVAQIKDKGNAYAAYYAPSVKGRFTISRDDSKNSIYLQMNSLKTEDTAVYYCHYVHYASASRVLPAFGVDAWGQGTTVTVSS
VL: DIVMTQSPLSLPVTPGEPASISCQASQELVHMNRNTYLHWYQQKPGQAPRLLIYKVSNRFPGVPDRFSGSGSGTDFTLKISRVEAEDVGVYYCAQGTSVPFTFGQGTKLEIK
B14: dBBDu183H A98F / dBBDu072L (antibody, name in Kabat numbering, V domains shown)
VH: QVQLVESGGGLVQPGRSLRLSCAASGFTFSNAWMHWVRQAPGKGLEWVAQIKDKGNAYAAYYAPSVKGRFTISRDDSKNSIYLQMNSLKTEDTAVYYCHYVHYFSASTVLPAFGVDAWGQGTTVTVSS
VL: DIVMTQSPLSLPVTPGEPASISCQASQELVHMNRNTYLHWYQQKPGQAPRLLIYKVSNRFPGVPDRFSGSGSGTDFTLKISRVEAEDVGVYYCAQGTSVPFTFGQGTKLEIK
B15: dBBDu183H S99F / dBBDu072L (antibody, name in Kabat numbering, V domains shown)
VH: QVQLVESGGGLVQPGRSLRLSCAASGFTFSNAWMHWVRQAPGKGLEWVAQIKDKGNAYAAYYAPSVKGRFTISRDDSKNSIYLQMNSLKTEDTAVYYCHYVHYAFASTVLPAFGVDAWGQGTTVTVSS
VL: DIVMTQSPLSLPVTPGEPASISCQASQELVHMNRNTYLHWYQQKPGQAPRLLIYKVSNRFPGVPDRFSGSGSGTDFTLKISRVEAEDVGVYYCAQGTSVPFTFGQGTKLEIK
B16: dBBDu183H S100aF / dBBDu072L (antibody, name in Kabat numbering, V domains shown)
VH: QVQLVESGGGLVQPGRSLRLSCAASGFTFSNAWMHWVRQAPGKGLEWVAQIKDKGNAYAAYYAPSVKGRFTISRDDSKNSIYLQMNSLKTEDTAVYYCHYVHYASAFTVLPAFGVDAWGQGTTVTVSS
VL: DIVMTQSPLSLPVTPGEPASISCQASQELVHMNRNTYLHWYQQKPGQAPRLLIYKVSNRFPGVPDRFSGSGSGTDFTLKISRVEAEDVGVYYCAQGTSVPFTFGQGTKLEIK
B17: dBBDu183H A100fR / dBBDu072L (antibody, name in Kabat numbering, V domains shown)
VH: QVQLVESGGGLVQPGRSLRLSCAASGFTFSNAWMHWVRQAPGKGLEWVAQIKDKGNAYAAYYAPSVKGRFTISRDDSKNSIYLQMNSLKTEDTAVYYCHYVHYASASTVLPRFGVDAWGQGTTVTVSS
VL: DIVMTQSPLSLPVTPGEPASISCQASQELVHMNRNTYLHWYQQKPGQAPRLLIYKVSNRFPGVPDRFSGSGSGTDFTLKISRVEAEDVGVYYCAQGTSVPFTFGQGTKLEIK
B18: dBBDu183H D101R / dBBDu072L (antibody, name in Kabat numbering, V domains shown)
VH: QVQLVESGGGLVQPGRSLRLSCAASGFTFSNAWMHWVRQAPGKGLEWVAQIKDKGNAYAAYYAPSVKGRFTISRDDSKNSIYLQMNSLKTEDTAVYYCHYVHYASASTVLPAFGVRAWGQGTTVTVSS
VL: DIVMTQSPLSLPVTPGEPASISCQASQELVHMNRNTYLHWYQQKPGQAPRLLIYKVSNRFPGVPDRFSGSGSGTDFTLKISRVEAEDVGVYYCAQGTSVPFTFGQGTKLEIK
B19: dBBDu183H G100hR / dBBDu072L (antibody, name in Kabat numbering, V domains shown)
VH: QVQLVESGGGLVQPGRSLRLSCAASGFTFSNAWMHWVRQAPGKGLEWVAQIKDKGNAYAAYYAPSVKGRFTISRDDSKNSIYLQMNSLKTEDTAVYYCHYVHYASASTVLPAFRVDAWGQGTTVTVSS
VL: DIVMTQSPLSLPVTPGEPASISCQASQELVHMNRNTYLHWYQQKPGQAPRLLIYKVSNRFPGVPDRFSGSGSGTDFTLKISRVEAEDVGVYYCAQGTSVPFTFGQGTKLEIK
B20: dBBDu183H A100F / dBBDu072L (antibody, name in Kabat numbering, V domains shown)
VH: QVQLVESGGGLVQPGRSLRLSCAASGFTFSNAWMHWVRQAPGKGLEWVAQIKDKGNAYAAYYAPSVKGRFTISRDDSKNSIYLQMNSLKTEDTAVYYCHYVHYASFSTVLPAFGVDAWGQGTTVTVSS
VL: DIVMTQSPLSLPVTPGEPASISCQASQELVHMNRNTYLHWYQQKPGQAPRLLIYKVSNRFPGVPDRFSGSGSGTDFTLKISRVEAEDVGVYYCAQGTSVPFTFGQGTKLEIK

The experiment deals with Human CD137 ECD (human). Description: SPR, vs parent H183/L072.
Sequence of Human CD137 ECD (human) (chain, as listed by the source limits assumed): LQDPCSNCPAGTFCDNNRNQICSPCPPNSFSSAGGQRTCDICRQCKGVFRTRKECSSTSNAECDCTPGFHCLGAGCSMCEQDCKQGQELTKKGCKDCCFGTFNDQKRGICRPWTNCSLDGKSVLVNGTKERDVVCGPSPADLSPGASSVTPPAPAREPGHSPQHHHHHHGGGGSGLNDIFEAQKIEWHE
With B1, the fold change of affinity worked out at 0 fold.
The same measure for B2: 0 fold.
In the case of B3, the fold change of affinity amounted to 0 fold.
Turning to B4, the fold change of affinity turned out to be 0 fold.
In the case of B5, the fold change of affinity was determined as 0 fold.
The same measure for B6: 0 fold.
Next, B7: 0 fold; B8: 0 fold; B9: 0 fold.
Next, B10: 0 fold.
Consider B11, for which the fold change of affinity was determined as 0 fold.
With B12, the fold change of affinity stood at 0 fold.
On to B13, for which the fold change of affinity came to 0 fold.
B14: the fold change of affinity came out at 0 fold.
Next, B15: 0 fold; B16: 0 fold.
For the molecule B17, the fold change of affinity turned out to be 0 fold.
Consider B18, for which the fold change of affinity is 0 fold.
The same measure for B19: 0 fold.
B20: the fold change of affinity worked out at 0 fold.
